Reference: patent US20260049140A1 (JANUX THERAPEUTICS, published 2026)
Read-outs that look alike come from different tables or passages of the source. Blank lines part the entries; values can stand above or below the binder they belong to. Ends that are not written are not given here.

T1: TROP2 (human, UniProt P09758 27-274, limits assumed, biotinylated (site not stated))
T1 construct: also called TROP2-biotin; tumor-associated calcium signal transducer 2
T1 sequence (looked up): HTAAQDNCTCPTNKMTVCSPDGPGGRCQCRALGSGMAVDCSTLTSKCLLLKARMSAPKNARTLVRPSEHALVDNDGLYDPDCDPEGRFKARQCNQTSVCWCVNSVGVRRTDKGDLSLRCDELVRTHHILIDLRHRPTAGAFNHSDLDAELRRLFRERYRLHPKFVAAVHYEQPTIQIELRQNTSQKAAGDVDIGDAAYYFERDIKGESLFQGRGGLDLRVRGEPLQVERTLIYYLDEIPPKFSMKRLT

T2: human TROP2-biotin (human, UniProt P09758 27-274, limits assumed, biotinylated (site not stated))
T2 construct: also called hTROP2-Biotin; Biotinylated TROP2
T2 sequence (looked up): T1 sequence (looked up)

T3: Cyno CD3 (Antigen was biotinylated for capture on the plate (per card); site of biotin and any vendor tag not stated in the passages seen.)
T3 construct: also called cynomolgus CD3
T3 chain: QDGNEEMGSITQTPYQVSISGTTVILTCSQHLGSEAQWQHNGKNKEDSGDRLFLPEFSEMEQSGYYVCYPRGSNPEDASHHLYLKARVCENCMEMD

B1: Peptide-5 (peptide)
peptide: SECLVDLQSDPCYW
modifications: cysteine pairing not given here; also: biotinylated when captured in binding ELISA
notes: also called 1454
B2: Peptide-4 (peptide)
peptide: DWCWYSPDNDGLCD
modifications: cysteine pairing not given here; also: biotinylated when captured in binding ELISA
notes: also called 1446
B3: TCE-30 (bispecific antibody)
light: DIQLTQSPSSLSASVGDRVSITCKASQDVSIAVAWYQQKPGKAPKLLIYSASYRYTGVPDRFSGSGSGTDFTLTISSLQPEDFAVYYCQQHYITPLTFGAGTKVEIKRTVAAPSVFIFPPSDEQLKSGTASVVCLLNNFYPREAKVQWKVDNALQSGNSQESVTEQDSKDSTYSLSSTLTLSKADYEKHKVYACEVTHQGLSSPVTKSFNRGEC
heavy: not shown
notes: anti-CD3 scFv H101A; anti-TROP2 Fab F108A
B4: TCE-29 (bispecific antibody)
light: B3 light
heavy: not shown
notes: anti-CD3 scFv wt; anti-TROP2 Fab F108A
B5: TCE-34 (bispecific antibody)
light: B3 light
heavy: not shown
notes: anti-CD3 scFv N30Q, I109V, G172A, V231A; anti-TROP2 Fab F108A
B6: TCE-32 (bispecific antibody)
light: B3 light
heavy: not shown
notes: anti-CD3 scFv F240A; anti-TROP2 Fab F108A
B7: TCE-31 (bispecific antibody)
light: B3 light
heavy: not shown
notes: anti-CD3 scFv F104A; anti-TROP2 Fab F108A
B8: TCE-36 (bispecific antibody)
light chain (anti-TROP2 LC wt): B3 light
heavy chain (anti-CD3 scFv H101A fused to anti-TROP2 D109A Fab HC): not shown
notes: not in the list MOLECULES; also called TCE-36 (anti-CD3 scFv H101A; anti-TROP2 (D109A) HC)
B9: TCE-33 (anti-CD3 scFv, several mutations; anti-TROP2 (F108A) HC) (bispecific antibody)
light: B3 light
heavy: EVQLVESGGGLVQPGGSLKLSCAASGFTFNKYAMNWVRQASGKGLEWVGRIRSKYNNYATYYADSVKDRFTISRDDSKNTAYLQMNSLKTEDTAVYYCVRHGNFGNSYISYWAYWGQGTLVTVSSGGGGSGGGGSGGGGSQTVVTQEPSFSVSPGGTVTLTCRSSTGAVTSGNYANWVQQTPGQAPRGLIGGTKFLAPGVPDRFSGSILGNKAALTITGAQADDESDYYCVLWYSNRWVFGGGTKLTVLGGGGSQVQLQQSGSELKKPGASVKVSCKASGYTFTNYGMNWVKQAPGQGLKWMGWINTYTGEPTYTDDFKGRFAFSLDTSVSTAYLQISSLKADDTAVYFCARGGFGSSYWYADVWGQGSLVTVSSASTKGPSVFPLAPSSKSTSGGTAALGCLVKDYFPEPVTVSWNSGALTSGVHTFPAVLQSSGLYSLSSVVTVPSSSLGTQTYICNVNHKPSNTKVDKKVEPKSC
notes: scFv-Fab; the entry already carries the mutations
B10: TCE-32 (anti-CD3 scFv F240A; anti-TROP2 (F108A) HC) (bispecific antibody)
light: B3 light
heavy: not shown
notes: as for B9
B11: TCE-31 (anti-CD3 scFv F104A; anti-TROP2 (F108A) HC) (bispecific antibody)
light: B3 light
heavy: not shown
notes: as for B9
B12: TCE-34 (anti-CD3 scFv, several mutations; anti-TROP2 (F108A) HC) (bispecific antibody)
light: B3 light
heavy: not shown
notes: as for B9
B13: TCE-37 (bispecific antibody)
light: B3 light
heavy: not shown
notes: anti-CD3 scFv F104A; anti-TROP2 Fab D109A
B14: TCE-26 (anti-CD3 scFv F240A; anti-TROP2 HC wt) (bispecific antibody)
light: B3 light
heavy: not shown
notes: scFv-Fab; the entry already carries the mutation; also called 3098
B15: TCE-38 (bispecific antibody)
light chain (anti-TROP2 LC wt): B3 light
heavy chain (anti-CD3 scFv F240A fused to anti-TROP2 D109A Fab HC): not shown
notes: not in the list MOLECULES; also called anti-TROP2 (D109A) HC)

Columns and labels:
TCE-1 = molecular target: T4, TCE-1; test: competition ELISA: peptide titrated and pre-incubated with a constant concentration of TCE-1; TCE-1 bound to plate-captured biotinylated CD3 is detected (blocked ligand: CD3)
T4 construct: anti-CD3 scFv wt fused to anti-TROP2 Fab HC wt

TCE-4 = molecular target: T5, TCE-4; test: competition ELISA, peptide titrated vs TCE binding to captured CD3
T5 construct: anti-CD3 scFv H101A; anti-TROP2 Fab wt; also called 3076

TCE-3 = molecular target: T6, TCE-3; test: as above
T6 construct: anti-CD3 scFv R100A; anti-TROP2 Fab wt; also called 3075

TCE-15 = molecular target: T7, TCE-15; test: as above
T7 construct: anti-CD3 scFv W112A; anti-TROP2 Fab wt; also called 3087

TCE-6 = molecular target: T8, TCE-6; test: as above
T8 construct: anti-CD3 scFv N103A; anti-TROP2 Fab wt; also called 3078

TCE-32 = molecular target: B6; test: as above
TCE-30 = molecular target: B3; test: as above
TROP2 [1] = molecular target: T1, TROP2; test: ELISA, biotinylated TROP2 captured on neutravidin coated plates, HRP secondary antibody, OD 450 nm
TROP2 [2] = molecular target: T1, TROP2; test: as above; remark: listed apart in the source
TROP2 [3] = molecular target: T1, TROP2; test: as above; remark: listed apart in the source
CD3ε [4] = molecular target: T9, CD3ε (human, UniProt P07766 23-126, limits assumed, biotinylated (site not stated)); test: ELISA, biotinylated CD3 captured on neutravidin coated plates, HRP secondary antibody, OD 450 nm
T9 construct: also called CD3-biotin; CD3E

CD3ε [5] = molecular target: T9, CD3ε; test: as above; remark: listed apart in the source
TROP2 [6] = molecular target: T1, TROP2; test: ELISA, biotinylated TROP2 captured on neutravidin coated plates, HRP secondary antibody, OD 450 nm; remark: listed apart in the source
human TROP2-biotin [7] = molecular target: T2, human TROP2-biotin; test: ELISA, biotinylated TROP2 captured on neutravidin plate, TCE titrated; table row head prints EC50 without a unit, unit taken from the axis Log [TCE nM]
human CD3ε-biotin [8] = molecular target: T10, human CD3ε-biotin (human, UniProt P07766 23-126, limits assumed, biotinylated (site not stated)); test: ELISA, biotinylated CD3ε captured on neutravidin plate, TCE titrated
T10 construct: also called CD3E-bio; CD3E-biotin

human CD3ε-biotin [9] = molecular target: T10, human CD3ε-biotin; test: BLI (Octet), human CD3-biotin 10 nM on sensor, 50 nM TCE
human TROP2-biotin [10] = molecular target: T2, human TROP2-biotin; test: BLI (Octet), human TROP2-biotin 10 nM on sensor, 50 nM TCE
human CD3ε-biotin [11] = molecular target: T10, human CD3ε-biotin; test: ELISA, biotinylated CD3ε captured on neutravidin plate, TCE titrated; table row head prints EC50 without a unit, unit taken from the axis Log [TCE nM]
Cyno CD3 = molecular target: T3, Cyno CD3; test: Cyno CD3 binding ELISA, TCE titrated
human CD3ε-biotin [12] = molecular target: T10, human CD3ε-biotin; test: Human CD3 binding ELISA, TCE titrated
human TROP2-biotin [13] = molecular target: T2, human TROP2-biotin; test: ELISA, biotinylated TROP2 captured on neutravidin plate, TCE titrated
human CD3ε-biotin [14] = molecular target: T10, human CD3ε-biotin; test: ELISA, biotinylated CD3ε captured on neutravidin plate, TCE titrated; remark: listed apart in the source
CD3ε [15] = molecular target: T9, CD3ε; test: ELISA, biotinylated CD3 captured on neutravidin coated plates, HRP secondary antibody, OD 450 nm; remark: listed apart in the source
human CD3ε-biotin [16] = molecular target: T10, human CD3ε-biotin; test: ELISA, biotinylated CD3ε on neutravidin plates
human CD3ε-biotin [17] = molecular target: T10, human CD3ε-biotin; test: BLI (Octet), summary table

Binder: B1
IC50 (read off the curve) (TCE-1): ~3000 nM
IC50 (TCE-4): > 100000 nM
IC50 (TCE-3): > 100000 nM

Binder: B2
IC50 (TCE-15): > 100000 nM
IC50 (read off the curve) (TCE-1): ~2000 nM
IC50 (TCE-4): > 100000 nM
IC50 (TCE-6): 4590 nM

IC50 (TCE-32): > 100000 nM
IC50 (TCE-30): > 100000 nM
Binder: YLCGPDADETLACY (cysteine pairing not given here; also: biotinylated when captured in ELISA) [Peptide-12]

Binder: B3
EC50 (read off the curve) (TROP2 [1]): ~2 nM

Binder: B4
EC50 (read off the curve) (TROP2 [2]): ~0.9 nM
EC50 (read off the curve) (TROP2 [3]): ~2 nM

Binder: B5
EC50 (read off the curve) (TROP2 [3]): ~2 nM
EC50 (read off the curve) (CD3ε [4]): ~0.6 nM

Binder: B6
EC50 (read off the curve) (CD3ε [5]): ~0.6 nM
EC50 (read off the curve) (TROP2 [6]): ~0.7 nM

Binder: B7
EC50 (read off the curve) (TROP2 [6]): ~0.7 nM

Binder: B8
EC50 (human TROP2-biotin [7]): 1.38 nM
EC50 (human CD3ε-biotin [8]): 0.595 nM

Binder: B9
Kd (human CD3ε-biotin [9]): 0.467 nM
Kd (human TROP2-biotin [10]): 1.22 nM

Binder: B10
EC50 (human CD3ε-biotin [11]): 0.938 nM
EC50 (Cyno CD3): 0.482 nM
EC50 (human CD3ε-biotin [12]): 0.531 nM

Binder: B11
EC50 (human TROP2-biotin [13]): 1.02 nM
EC50 (Cyno CD3): 0.671 nM
EC50 (human CD3ε-biotin [12]): 0.761 nM

Binder: B12
EC50 (human CD3ε-biotin [14]): 0.356 nM
EC50 (Cyno CD3): 0.354 nM
EC50 (human CD3ε-biotin [8]): 0.376 nM
EC50 (human CD3ε-biotin [12]): 0.382 nM

Binder: B13
EC50 (read off the curve) (CD3ε [15]): ~0.6 nM
EC50 (human TROP2-biotin [7]): 0.893 nM
EC50 (read off the curve) (TROP2 [1]): ~0.7 nM

Binder: B14
EC50 (human CD3ε-biotin [16]): 0.6 nM
CD3 t1/2 (human CD3ε-biotin [17]): 39 s

Binder: B15
EC50 (human CD3ε-biotin [8]): 1.09 nM

IC50 (TCE-15): > 100000 nM
IC50 (TCE-6): > 100000 nM
IC50 (TCE-3): > 100000 nM
Binder: QGCGTIADPEPHCW (cysteine pairing not given here; also: biotinylated when captured in ELISA, also called 1363) [Peptide-1]
